21 sequences from the supplement of paper PMC12764529 can be followed below.

The nature of data set [1]: folding stability dG unfold (combined trypsin and chymotrypsin); higher = more stable. The essentials:
(§1)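 K50 was inferred by Bayesian fitting of sequencing counts obtained after protease digestion of designed mini-proteins. Unfolding free energy was derived by comparison with a sequence-predicted unfolded-state K50 and a shared folded-state K50, for each protease or both combined. The mini-proteins were under 80 residues, had no cysteine, were carried in a PA-tagged cDNA display construct, and were kept only if AlphaFold2 dimer inter-PAE exceeded 15.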

The nature of data set [2]: folding stability dG unfold from chymotrypsin proteolysis; higher = more stable. The procedure, abridged:
as §1

± gives the half width of the 95% confidence interval. Bounds are passed on as bounds.

Consider “SAGGSAGGSSKTVPLKSEEEVKAVLEKLPPDAEYTVTDSEGKSKKVSPDEISFTPDPLTITVSSAGGSAGGS [r12_907_JUSTAS]”, for which the “folding stability dG unfold” value is -0.131 ± 0.092 kcal/mol in data set [1] and 0.362 ± 0.043 kcal/mol in data set [2].

Consider “SAGGSAGGSTLVFAPDDTLYLRIYLPETGGWRYIEVPAGQADSVARPLGAVRLEAYRRDEPVPSAGGSAGGS [r12_294_TrMRF]”, for which the entries for the “folding stability dG unfold” value in data set [1] and in data set [2] were 0.123 ± 0.15 kcal/mol and 0.83 ± 0.23 kcal/mol, respectively.

In the case of “SAGGSAGGSTVEELKKKAKELGLEVTVEKNKKDKKKITITVSEEAKKKLKEIAKEENIKVEIKSAGGSAGGS [r12_74_TrROS_Hall]”, the results for the “folding stability dG unfold” value in data set [1] and in data set [2] were -0.473 ± 0.47 kcal/mol and 0.0632 ± 0.051 kcal/mol, respectively.

With “SAGGSAGGSVIPFPGNSRIYVTEVREDGVKIKFPDIGTEITVPANVPINLVGNPTIGPDGTPYSAGGSAGGS [r20_105_TrMRF]”, the entries for the “folding stability dG unfold” value in data set [1] and in data set [2] were under -1 kcal/mol and -0.946 ± 0.53 kcal/mol, respectively.

For “SAGGSAGGSVTAVPIEELIPLPTPRTLKVTGTVYVLPGGEVVTERTLTEPSPGTVTVETKTIPLSAGGSAGG [r6_727_JUSTAS]”, the “folding stability dG unfold” value in data set [1] was under -1 kcal/mol; in data set [2] it was -0.517 ± 0.4 kcal/mol.

Regarding “SAGGSAGGWFWVIKAEYPKNGRERSIQIPNEATDEDDVKEEVKELAEDLGAPIKKVEIEWIDPESAGGSAGG [r6_718_TrROS]”, the results for the “folding stability dG unfold” value in data set [1] and in data set [2] were under -1 kcal/mol and -0.474 ± 0.34 kcal/mol, respectively.

Turning to “SAGGSAGGWVEQTYMVPPDMPVNMIKNKLEPWGVEIDDVEPFPNGNSIVTITIPPEFLKDPDEKSAGGSAGG [r6_470_TrROS]”, the “folding stability dG unfold” value in data set [1] is -0.262 ± 0.51 kcal/mol; in data set [2] it was 0.574 ± 0.22 kcal/mol.

As to “SAGGSAGMKNVVKPVAPGTSMTLKVTKPDGTPRTLTFPPNYTATVKTLPEGGKDEIISLEPVPPELSAGGSA [r15_82_JUSTAS]”, the “folding stability dG unfold” value is under -1 kcal/mol in data set [1] and -0.82 ± 0.53 kcal/mol in data set [2].

“SAGGSAGPMVKTTEFSAVYTGPGGVSRGPVAVTVEIPPGDPSNPVLTVTLPDGTPRTLAAGEVEAASAGGSA [r15_954_JUSTAS]”: the “folding stability dG unfold” value in data set [1] was -0.757 ± 0.27 kcal/mol; in data set [2], -0.672 ± 0.36 kcal/mol.

With “SAGGSAGSHNQSPDGITLDAPLSSEEEIEALVAEVKAAAPPTYTVTVERTRSPSTLSVDVIVTAAPSAGGSA [r15_80_JUSTAS]”, the “folding stability dG unfold” value in data set [1] is -0.895 ± 0.97 kcal/mol; in data set [2] it was -0.579 ± 0.19 kcal/mol.

For “SAGGSAIKPGDPYVRIKFRMGNEPMEFTIPAEKIKKITVDDPDDQVTIRFPGNGRKFPMKLEEVEISAGGSA [r15_495_TrROS]”, the figures for the “folding stability dG unfold” value in data set [1] and in data set [2] were -0.41 ± 0.25 kcal/mol and -0.316 ± 0.33 kcal/mol, respectively.

“SAGGSALTIKVKDPEDIKDLEIQVYLPDGRPMLMKIEVQRDEGPPYVKIKAENPGNGKKRKETFPFSAGGSA [r15_1006_TrROS]”: the results for the “folding stability dG unfold” value in data set [1] and in data set [2] were -0.243 ± 0.62 kcal/mol and 0.0249 ± 0.53 kcal/mol, respectively.

Take “SAGGSAMFTSSTSTDPATGLRRTTTLFPDSSAAVTTTVAVPPVPPLSPEAVAAGEAAAAAGRPPAVSAGGSA [r15_631_JUSTAS]”: the “folding stability dG unfold” value in data set [1] was under -1 kcal/mol; in data set [2], 0.59 ± 0.17 kcal/mol.

With “SAGGSAMKIEVEEFPVLVPPELIPELKDKPGAIVKVKKVKFYAEAPEEEREKLKKELEEKTGIKTESAGGSA [r15_347_TrMRF]”, the results for the “folding stability dG unfold” value in data set [1] and in data set [2] were under -1 kcal/mol and 0.0727 ± 0.61 kcal/mol, respectively.

In the case of “SAGGSAMKTSLSRSTSTDPSDPNVTYKTTTTFLPDNTVLTNTTTTTRVGSSDVTTTTTTTTPIPAASAGGSA [r15_553_JUSTAS]”, the entries for the “folding stability dG unfold” value in data set [1] and in data set [2] were 0.135 ± 0.18 kcal/mol and 0.409 ± 0.18 kcal/mol, respectively.

As for “SAGGSAMKVEKEGDKVTIIVNAPESLNDKKVLTEKIKKAIEENKNKEVEIIAPPKYKPYAEETIKNSAGGSA [r15_89_JUSTAS]”, the “folding stability dG unfold” value was -0.558 ± 0.39 kcal/mol in data set [1] and -0.217 ± 0.52 kcal/mol in data set [2].

Regarding “SAGGSAMPSPITVTTFPGGTARLVEFPDGSTAVVEIVEEGPERVLVTTTTPPDGVPTTSVVPAAELSAGGSA [r15_941_JUSTAS]”, the entries for the “folding stability dG unfold” value in data set [1] and in data set [2] were -0.537 ± 0.21 kcal/mol and -0.0657 ± 0.072 kcal/mol, respectively.

Regarding “SAGGSAMSRTITVEITDPRNGKKLKNVVIDVPEDEDISDEEILKKIGIPEKEAKNIKVSKTTEELESAGGSA [r15_665_JUSTAS]”, the “folding stability dG unfold” value turned out to be 0.169 ± 0.19 kcal/mol in data set [1] and 0.365 ± 0.17 kcal/mol in data set [2].

In the case of “SAGGSAMTPQTLTLPDGTQVTVYYDPSTGKYTITTTTTTPTAQGTGPTTTTTKTVDSEEELLAYLSSAGGSA [r15_31_JUSTAS]”, the results for the “folding stability dG unfold” value in data set [1] and in data set [2] were 4.5 ± 0.2 kcal/mol and 4.37 ± 0.13 kcal/mol, respectively.

For the sequence “SAGGSAMVVVKITNPNGEKIEIEIEAETEEEAKKAAEELAKKLPKNVKVEVVKVEKVEVKDGKILKSAGGSA [r15_469_TrROS_Hall]”, the “folding stability dG unfold” value is under -1 kcal/mol in data set [1] and -0.919 ± 0.74 kcal/mol in data set [2].

In the case of “SAGGSANAEEIADWLQDRGFKEVEIEKDPENGNVTVEIRNPGGYEWELTINPKNPKITEIEPRPKKSAGGSA [r15_648_TrROS]”, the “folding stability dG unfold” value was -0.523 ± 0.42 kcal/mol in data set [1] and 0.0797 ± 0.097 kcal/mol in data set [2].
